Measurements from the supplement of paper PMC10567573.

B1: C8orf76 (parent)
chain: KLAEAYLNLGPALSAALASSQKQH
B2: CROP (parent)
chain: VFGRGDNISDVSKFLEDDKWMEE

Variants of: B1
Assay: protein stability index of a GFP-peptide fusion (GPS, HEK-293T) (PSI 1-6); higher = more stable
Details: c terminus: a fixed tail appended
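Note: lentivirally expressed fusions sorted by FACS into six bins by GFP to DsRed ratio, PSI derived from sequencing read proportions per bin multiplied by bin number.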

Protein stability index, by site and new letter:
A5: M 3.68, F 3.28, H 2.04, N 2.07, L 4.98, T 2.93, D 2.44, V 1.89, K 1.82, Y 4.03, R 2.27, C 4.48, E 2.96, Q 2.33, W 1.58, S 1.24, G 2.03, P 2.76
A3: P 2.48, W 3.22, F 3.79, D 3.08, N 2.12, K 1.93, R 2.24, H 2.29, G 2.22, S 1.82, L 3.56, Q 1.72, M 1.43, E 1.85, I 2.07, Y 3.71, T 1.52, C 3.15, V 3.08
E4: V 1.39, G 2.43, W 3.01, I 2.97, C 1.57, R 1.6, D 2.2, Y 2.55, S 1.31, H 3.03, T 3.2, P 2.2, F 1.94, K 1.43, Q 2.63, M 4.83, N 2.35, A 1.83
P11: D 2.26, R 3.7, A 2.16, C 2.49, H 1.84, Q 2.28, K 1.94, S 3.4, F 2.45, M 2.9, Y 1.26, E 2.52, I 2.53
L9: I 3.05, K 3.11, W 3.02, H 2.26, T 2.62, G 2.68, Y 2.06, P 2.75, F 2.56, Q 3.08, D 3.5, V 1.91, A 4.3, M 2.36, S 1.96, C 1.36, N 2.89, R 2.61, E 2.36
Y6: V 3.81, K 3.18, A 1.54, R 2.98, S 3.04, W 2.08, C 2.32, E 3.65, D 3.94, T 1.85, P 3.59, H 2.3, N 3.58, I 2.39, Q 2.73
G10: K 2.26, P 2.58, I 3.16, Q 2.21, E 1.87, F 2.51, W 1.61, M 2.77, A 1.92, S 2.51, Y 1.86, C 2.66, R 1.94, H 1.96, V 2.73, D 1.88, N 2.08, T 2.12
L7: A 1.6, Y 2.07, E 2.65, G 1.67, C 2.36, Q 1.54, V 3.1, I 2.59, M 1.53, T 1.7, K 1.62, N 1.94, S 2.21, D 2.23, F 2.53, P 2.23, H 1.94
K1: E 2.64, I 2.14, S 2.08, Q 2.44, A 2.64, T 2.78, V 2.25, Y 2.63, D 2.06, L 5.14, H 1.97, C 4.61, N 3.67, W 3.61, P 1.19
N8: M 2.15, A 4.23, E 2.42, W 3.78, K 1.33, R 3.8, D 2.07, F 2.74, H 2.16, T 3.12, C 3.63, Q 1.73, Y 2.59, S 3.78, P 2.02, L 2.33, V 3.33, G 2.5
L2: N 2.61, C 2.03, H 2.66, Q 2.57, G 2.36, I 2.6, K 3.38, A 2.15, Y 1.97, E 3.62, P 3.15, W 2.89, S 3.07, F 1.11, D 3.38, V 1.33, M 1.68, T 2.8, R 2.38

Variants of: B2
Assay: as above
Details: c terminus: native

Protein stability index: each site, then its substitutions
E22: N 4.31, L 4.07, C 4.69, V 4.25, T 4.94, K 4.73, P 4.33, A 4.23
N7: P 1.35, L 1.42, C 2.37, G 1.77
K13: E 2.41, N 1.91, S 2.65, G 2.02, D 2.83
F2: L 1.97, V 2.64, C 3.7, W 2.85, A 2.88, Y 1.66, H 3.4, Q 2.99, E 4.33
W20: A 4.2, Q 3.4, F 4.18, R 3.94, C 4.08, I 3.97, T 4.17, V 3.81
S9: E 2.44, P 3.03, I 1.97, H 2.25, M 2.47, N 1.78
D18: N 2.44, P 3.66, Q 2.98, K 2.69, V 1.77
D17: H 1.34, E 2.41, Q 2, L 1.29, N 2.26
M21: D 4.49, G 4.04, S 2.52, N 1.43, H 2.25, I 1.27
F14: Y 2.03, N 3.54, W 1.96, I 3.83, S 4.16, M 2.42, P 4.07, H 4.16, D 3.96
D10: T 2.74, V 2.63, A 1.99, P 1.69
I8: L 2.11, S 2.48, N 1.44, D 1.89, C 2.81, F 2, R 2.92
L15: T 3.47, W 2.1, Y 2.21, S 2.28, E 3.77, V 1.94, F 1.06
G5: F 1.88, D 2.29, C 2.27, I 2.77, W 2.02, A 2.03
D6: Q 2.4, R 2.16, K 2.01
K19: M 1.21, G 1.95, H 1.91, S 3.53, W 1.75, L 1.89, C 1.62
V1: Q 3, K 2.73, M 1.84, G 3.63, A 2.11, R 2.37, D 3.13
E23: C 4.1, L 3.54, N 4.41, T 4.08, H 4.53, K 4.76, Q 4.37, Y 3.76, M 4.68
R4: K 2.41, C 2.66, W 1.39, I 1.95, S 2.33, A 2.43, M 2.77, E 2.42, P 1.51
V11: G 2.11, L 1.61, F 2.15, I 2.39, E 2.39, Y 1.38, T 1.49, M 2.95, W 2.43, P 3.27
S12: Y 1.74, A 1.4
G3: D 2.21, K 1.44, S 1.82
E16: Q 1.95, F 2.42, I 1.65, K 1.97, H 1.79, A 2.44
